Consider eight molecules from patent US20230158117A1, “COMPOSITION FOR PREVENTION OR TREATMENT OF […] COMPRISING TRIGONAL GLUCAGON/GLP-1/GIP RECEPTOR AGONIST OR CONJUGATE THEREOF AND METHOD USING THE SAME” (HANMI PHARM. CO., LTD., priority 2020, published 2023).

The target in one test is T1, human GCG receptor (Homo sapiens, UniProt P47871).
T1 construct: expressed in transfected cells; host or cells: Chinese hamster ovary (CHO)
Nature of the test: In vitro activity (cAMP accumulation, LANCE cAMP kit) in CHO cells expressing human GCG receptor. The following applies: long-acting conjugate, relative potency from cAMP EC50 compared to human GCG. In kind it is cell-based. The procedure: (§1) Activities of the triple agonists and the long-acting conjugates thereof respectively prepared in Examples 1 and 2 were measured using transformed cell lines in which a GLP-1 receptor, a glucagon (GCG) receptor, and a GIP receptor were transformed by way of a method of measuring in vitro cellular activities.
(§2) The cell lines were transformed such that genes for the human GLP-1 receptor, the human GCG receptor, and the human GIP receptor were each expressed in Chinese hamster ovary (CHO), and were suitable for measuring activities of GLP-1, GCG, and GIP, respectively. Therefore, the activity for each part was measured using each of the transformed cell lines.
(§3) For measurement of the activity of the triple agonists and the long-acting conjugates thereof respectively prepared in Examples 1 and 2 to GCG, human GCG was subjected to a 4-fold serial dilution from 50 nM to 0.000048 nM, and the triple agonists and the long-acting conjugates thereof respectively prepared in Examples 1 and 2 were subjected to a 4-fold serial dilution from 400 nM to 0.00038 nM. A cultured solution was removed from the cultured CHO cells in which the human GCG receptor was expressed, and each of the serially diluted substances was added to the CHO cells in an amount of 5 μL. Then, a buffer solution including cAMP antibody was added thereto in an amount of 5 μL and cultured at room temperature for 15 minutes. Thereafter, a detection mix including a cell lysis buffer was added thereto in an amount of 10 μL for lysis of the cells, followed by reaction at room temperature for 90 minutes. Upon completion of the reaction, the cell lysates were applied to a LANCE cAMP kit (PerkinElmer, USA) to calculate EC50 values via accumulated cAMP, and the values were compared with each other.
On the technique in general: cAMP levels reflect the balance of adenylyl cyclase and phosphodiesterase activity.

A further test concerns the target T2, human GIP receptor (Homo sapiens, UniProt P48546).
T2 construct: expressed in transfected cells; host or cells: Chinese hamster ovary (CHO)
T2 sequence (P48546 22-466): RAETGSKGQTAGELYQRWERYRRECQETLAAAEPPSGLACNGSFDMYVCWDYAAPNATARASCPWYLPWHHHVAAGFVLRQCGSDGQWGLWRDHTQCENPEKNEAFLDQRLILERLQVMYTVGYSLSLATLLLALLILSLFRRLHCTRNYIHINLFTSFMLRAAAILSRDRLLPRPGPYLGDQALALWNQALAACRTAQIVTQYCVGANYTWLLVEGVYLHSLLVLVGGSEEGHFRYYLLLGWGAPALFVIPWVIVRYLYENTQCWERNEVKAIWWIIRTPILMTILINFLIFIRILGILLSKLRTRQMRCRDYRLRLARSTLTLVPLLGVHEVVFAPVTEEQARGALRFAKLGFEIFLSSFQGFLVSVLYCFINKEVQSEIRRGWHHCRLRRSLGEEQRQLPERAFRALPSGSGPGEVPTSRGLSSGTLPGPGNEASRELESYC
Description: In vitro activity (cAMP accumulation, LANCE cAMP kit) in CHO cells expressing human GIP receptor. In kind it is cell-based. The conditions noted are these: long-acting conjugate, relative potency from cAMP EC50 compared to human GIP. The procedure: as §1, §2
as §3, with “GIP,” for “GCG,”, “GIP” for “GCG”

For a further test, the target named is human GLP-1 receptor (Homo sapiens, UniProt P43220). Description: In vitro activity (cAMP accumulation, LANCE cAMP kit) in CHO cells expressing human GLP-1 receptor. It is filed as cell-based. More on the design: expressed in transfected cells; host or cells: Chinese hamster ovary (CHO). The following applies: long-acting conjugate, relative potency from cAMP EC50 compared to human GLP-1. The procedure:
as §1, §2
as §3, with “activity of each” for “activity”, “GLP-1,” for “GCG,”, “GLP-1” for “GCG”

The test system of a further test is hyperlipidemia hamsters. Description: Therapeutic effect on hyperlipidemia in fructose-fed hyperlipidemia hamsters. In kind it is in vivo, Golden Syrian hamsters. The conditions noted are these: 219.2 nmol/kg, QW; comparative example; FIG. 1. The text has this: Golden Syrian hamsters (hereinafter referred to as hyperlipidemia hamsters) were fed with fructose for 2 weeks to induce a hyperlipidemia model. Among the triple agonists prepared in Example 1, SEQ ID NO: 42 (1.6 nmol/kg, 3.1 nmol/kg, Q2D) was selected, and the long-acting conjugate of the triple agonist having SEQ ID NO: 42 was repeatedly administered to the hamsters induced with hyperlipidemia for 3 weeks by subcutaneous administration. As a comparative example, therapeutic effects of evolocumab (219.2 nmol/kg, QW), as a conventional therapeutic agent, on hyperlipidemia were measured.

Bridges are numbered along the chain shown (N, C = ends). Where no end group is shown, it is not given here. [ ]: non-standard residue; d: D form. Aib = CC(C)(N)C(=O)O

Chain of human GLP-1 receptor (P43220 24-463): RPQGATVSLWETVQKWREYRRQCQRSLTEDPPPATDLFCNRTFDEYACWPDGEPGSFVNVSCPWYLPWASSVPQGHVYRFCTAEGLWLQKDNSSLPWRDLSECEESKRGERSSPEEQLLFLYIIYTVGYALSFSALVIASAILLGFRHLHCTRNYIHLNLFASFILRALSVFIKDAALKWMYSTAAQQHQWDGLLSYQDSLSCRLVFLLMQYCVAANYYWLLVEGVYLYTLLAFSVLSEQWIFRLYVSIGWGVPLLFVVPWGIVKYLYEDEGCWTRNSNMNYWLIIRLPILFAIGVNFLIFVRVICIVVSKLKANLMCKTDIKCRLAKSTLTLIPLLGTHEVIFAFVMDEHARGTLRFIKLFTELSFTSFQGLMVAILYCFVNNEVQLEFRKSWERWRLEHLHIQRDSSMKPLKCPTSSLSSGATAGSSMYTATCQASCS

Turning to “21 (Y[Aib]QGTFTSDYSKYLDECRAKEFVQWLLDHHPSSGQPPPS; bridge 16-20) [compound 21]”, the “In vitro activity relative to native peptide (%) vs. Glucagon” value in the test with human GCG receptor came out at 1.6%. Also, the “In vitro activity relative to native peptide (%) vs. GIP” value in the test with human GIP receptor was determined as 0.2%. Besides, the “In vitro activity relative to native peptide (%) vs. GLP-1” value in the test with human GLP-1 receptor came to 0.1%.

With “22 (Y[Aib]QGTFTSDYSKCLDEKRAKEFVQWLLDHHPSSGQPPPS; bridge 16-20) [compound 22]”, the “In vitro activity relative to native peptide (%) vs. Glucagon” value with human GCG receptor came to 0.9%. In the test with human GIP receptor, the “In vitro activity relative to native peptide (%) vs. GIP” value is 0.5%. The “In vitro activity relative to native peptide (%) vs. GLP-1” value in the test with human GLP-1 receptor is recorded as 0.1%.

Take “42 (Y[Aib]QGTFTSDYSKYLDEKRAKEFVQWLLDHHPSSGQPPPSC; bridge 16-20) [compound 42]”: the “In vitro activity relative to native peptide (%) vs. Glucagon” value with human GCG receptor was determined as 23.1%. In addition, the “In vitro activity relative to native peptide (%) vs. GIP” value in the test with human GIP receptor came to 1.2%. Also, the “In vitro activity relative to native peptide (%) vs. GLP-1” value in the test with human GLP-1 receptor amounted to 3.1%.

As to “43 (Y[Aib]QGTFTSDYSKYLDEKRAKEFVQWLLDHHCSSGQPPPS; bridge 16-20) [compound 43]”, in the test with human GCG receptor, the “In vitro activity relative to native peptide (%) vs. Glucagon” value was 13.5%. In addition, the “In vitro activity relative to native peptide (%) vs. GIP” value with human GIP receptor is 0.6%. Moreover, the “In vitro activity relative to native peptide (%) vs. GLP-1” value with human GLP-1 receptor stood at 2.1%.

“50 (H[Aib]QGTFTSDYSKYLDEKRAKEFVQWLLDHHPSSGQPPPSC; bridge 16-20) [compound 50]”: the “In vitro activity relative to native peptide (%) vs. Glucagon” value with human GCG receptor came out at 6.9%. In the test with human GIP receptor, the “In vitro activity relative to native peptide (%) vs. GIP” value stood at 0.7%. The “In vitro activity relative to native peptide (%) vs. GLP-1” value in the test with human GLP-1 receptor was determined as 15.4%.

For the molecule “77 (Y[Aib]QGTFTSDYSKYLDEKAAKDFVQWLLDHHPSSGQPPPSC; bridge 16-20) [compound 77]”, the “In vitro activity relative to native peptide (%) vs. Glucagon” value with human GCG receptor amounted to 1.7%. Moreover, in the test with human GIP receptor, the “In vitro activity relative to native peptide (%) vs. GIP” value is 6.6%. Moreover, the “In vitro activity relative to native peptide (%) vs. GLP-1” value in the test with human GLP-1 receptor is given as 6.7%.

Turning to “96 (Y[Aib]QGTFTSDYSKYLDEKRAKEFVQWLLDHCPSSGQPPPS; bridge 16-20) [compound 96]”, the “In vitro activity relative to native peptide (%) vs. Glucagon” value in the test with human GCG receptor came out at 4.0%. For the same molecule, the “In vitro activity relative to native peptide (%) vs. GIP” value with human GIP receptor came to 0.3%. Besides, the “In vitro activity relative to native peptide (%) vs. GLP-1” value with human GLP-1 receptor is reported as 0.3%.

B1: evolocumab (antibody, chains of the INN, looked up, V domains shown)
VH: EVQLVQSGAEVKKPGASVKVSCKASGYTLTSYGISWVRQAPGQGLEWMGWVSFYNGNTNYAQKLQGRGTMTTDPSTSTAYMELRSLRSDDTAVYYCARGYGMDVWGQGTTVTVSS
VL: ESALTQPASVSGSPGQSITISCTGTSSDVGGYNSVSWYQQHPGKAPKLMIYEVSNRPSGVSNRFSGSKSGNTASLTISGLQAEDEADYYCNSYTSTSMVFGGGTKLTVL
notes: conventional therapeutic agent for hyperlipidemia
Regarding B1, the “effects on total blood cholesterol level and blood LDL level” value in the test on hyperlipidemia hamsters is on record as “negligible effects”.
